Test [1] deals with T1, human EGFRvIII protein on the cell surface (human, UniProt P00533 25-1210). In words: cell-based or functional assay.
Test [2] addresses T2, human wild-type EGFR protein on the cell surface (human, UniProt P00533 25-1210).
T2 construct: whole, on cells; Endogenous on A431, HEB, U87MG cells and normal human primary hepatocytes; transfected on CHOk1-EGFR cells; The cell is named under assay; also called A431; HEB
In words: FACS, MFI on A431 cells over MFI on normal primary hepatocytes. The method, then:
(§1) The preparation of U87MG-EGFRvIII required for FACS detection is as described in the preparation of the immunogen B in example 1. Normal human primary hepatocytes are purchased from BioreclamationIVT, and A431 tumor cells are purchased from ATCC. The recovered hepatocytes are directly used for FACS detection, and the recovered U87MG-EGFRvIII and A431 cells are subjected to an expanded culture to 90% confluence in a T-75 cell culture flask; the medium is sucked out, and the cells are washed twice with a HBSS buffer (Hanks Balanced Salt Solution) (purchased from Invitrogen), and then treated with an enzyme-free cell dissociation solution (Versene solution: purchased from Life Technology) and collected. The cells are washed twice with the HBSS buffer and are counted, and then the cells are diluted with the HBSS buffer to 2×10⁶ cells/ml, added with 1% goat serum blocking solution, with the percentage being the mass percentage, and incubated on ice for 30 minutes, and then centrifugally washed twice with the HBSS buffer. The collected cells are resuspended to 2×10⁶ cells/mL with an FACS buffer (HBSS+2% FBS, with the percentage being the volume percentage), added to a 96-well FACS reaction plate at 100 μL/well, then added with 100 μL/well of the purified EGFRvIII antibody (samples to be tested) obtained in example 12, and incubated on ice for 2 hours. The plate is centrifugally washed twice with the FACS buffer, added with 100 μL/well of a 1:1000 diluted fluorescence (Alexa 488) labeled secondary antibody (purchased from Invitrogen), and incubated on ice for 1 hour. The plate is centrifugally washed 3 times with the FACS buffer, added with 100 μL/well of a fixing solution [4% (v/v) paraformaldehyde] to resuspend the cells, and centrifugally washed twice with the FACS buffer after 10 minutes. The cells are resuspended in 100 μL of the FACS buffer, and the results are detected and analyzed by FACS (FACS Calibur, purchased from BD). Data analysis is performed by using the software (CellQuest) to obtain the mean fluorescence intensity (MFI) of the cells. Data is further analyzed by using the software (GraphPad Prism5) to perform data fitting and calculate EC50.

Test [3] addresses T2, human wild-type EGFR protein on the …. Nature of the test: FACS on A431 tumor cells. The method, then: as §1
For test [4], the target named is T3, human EGFRvIII-hFc protein (human, UniProt P00533 25-645).
T3 construct: extracellular domain; also called immunogen A; hFc-tagged EGFRvIII protein; not shown: human IgG Fc fragment (hFc) of the pCpC vector
In words: ELISA, EGFRvIII-hFc coated. The method, then:
The purified humanized anti-EGFRvIII antibody obtained in example 12 is reacted with a human EGFRvIII-hFc protein.
The purified immunogen A (EGFRvIII-hFc) obtained in example 1 (for the preparation method, see step (I) in example 1) is diluted with PBS to a final concentration of 1.0 μg/mL, and then added to a 96-well ELISA plate at 100 μl/well. The plate is sealed with a plastic film and incubated at 4° C. overnight. The next day, the plate is washed twice with a plate washing solution [PBS+0.01% (v/v) Tween20], and added with a blocking solution [PBS+0.01% (v/v) Tween20+1% (w/w) BSA] for blocking 2 hours at room temperature. […] The plate is incubated for 2 hours at 37° C., and then washed 3 times with the plate washing solution [PBS+0.01% (v/v) Tween20]. The plate is added with an HRP (horseradish peroxidase) labeled secondary antibody (purchased from Sigma), incubated at 37° C. for 2 hours, and then washed 3 times with the plate washing solution [PBS+0.01% (v/v) Tween20]. The plate is added with 100 μl of TMB substrate/well, incubated for 30 minutes at room temperature, and then added with 100 μl of stopping solution (1.0N HCl)/well. A450 nm value is read using an ELISA plate reader (SpectraMax 384plus, purchased from Molecular Device).

Test [5] has as its target T1, human EGFRvIII protein on the cell …. In words: FACS on U87MG-EGFRvIII cells. The method, then:
as §1

Test [6] deals with T2, human wild-type EGFR protein on the …. In words: FACS on normal human primary hepatocytes. On the procedure: as §1

B1: Chimeric antibody 7E5-MMAF (antibody, human IgG1, V domains shown)
VH: EIQLQQSGPELVKPGASVKVSCKASGYSFTDYNMYWVKQSHGKSLEWIGYVDPSNGGTNYNQKFKGKATLTVDKSSSTAFMHLNSLTSEDSAVYYCARGFFDYWGQGTTLTVSS
VL: DIVMTQSPSSLTVTAGEKVTMSCKSSQSLLNSGNQKNYLTWYQQKPGQPPKLLIYWASNRESGVPDRFTGSGSGKDFTLTISSVQAEDLAVYYCQNDYRYPVTFGAGTKLELK
modifications: MC-MMAF coupled after TCEP reduction (sites not given); DAR 3.51 for the antibody
Regarding B1, the “IC50, nM; cell killing of U87MG-hEGFRvIII (CellTiter-Glo, 5 days)” value (“IC50, nM; cell killing” below) in test [1] worked out at 0.04 nM.

B2: Chimeric antibody 63A10-MMAF (antibody, human IgG1, V domains shown)
VH: QVQLQQSGAELARPGASVKMSCKASGYTFISFTMHWVKQRPGQGLEWIGYINPNSGYTKYNQKFKDKATLTAGQSSSTAYMQLSSLTSEDSAVYYCTRGGGRGFAYWGQGTLVTVSA
VL: DILMTQSPSSMSVSLGDTVTITCHASQDINSNIGWLQQKPGKSFKALIYHGTNLEDGVPSRFSGSGSGADYSLTISSLESEDFADYYCVQYAQFPFTFGSGTKLEIK
modifications: MC-MMAF coupled after TCEP reduction (sites not given); DAR 3.10 for the antibody
As to B2, the “IC50, nM; cell killing” value in test [1] worked out at 0.01 nM.

B3: Chimeric antibody 64F1-MMAF (antibody, human IgG1, V domains shown)
VH: QVQLQQSGAELARPGASVKMSCKASGYTFSSYTMHWAKQRPGQGLEWIGYINPSSGYTKYNQKFKDKATLTADKSSSTAYMQLSSLTSEDSIVYYCARGGGRGFAYWGQGTLVTVSA
VL: QIVLTQSPAIMSASPGERVTMTCSASSSVSYMYWYQQKPGSSPRLLIYDTSNLASGVPVRFSGSGSGTSYSLTISRVEAEDAATYYCQQWSSYSLTFGAGTKLELK
modifications: MC-MMAF coupled after TCEP reduction (sites not given); DAR 4.05 for the antibody
Consider B3, for which the “IC50, nM; cell killing” value in test [1] came out at 0.01 nM.

B4: Chimeric antibody 75G7-MMAF (antibody, human IgG1, V domains shown)
VH: EVQLQQSGPELVKPGASVKIPCKASGYTFTDYNMDWVKQSHGKSLEWIGDINPNNGDTIYNQKFKGKATLTVDKSSSTAYMELRSLTSEDTAVYYCARGDYDGYYPVYYAMDYWGQGTSVTVSS
VL: ENVLTQSPAIMSASPGEKVTMTCRASSSVSSSYLHWYQQKSGASPKLWIFSTSNLAAGVPARFSGSGSGTSYSLTVSSVEAEDAATYYCQQYSGYPLTFGAGTKLELK
modifications: MC-MMAF coupled after TCEP reduction (sites not given); DAR 3.40 for the antibody
As for B4, in test [1], the “IC50, nM; cell killing” value worked out at 0.27 nM.

B5: Humanized antibody h75G7C6-9 (antibody, human IgG1, V domains shown)
VH: QVQLVQSGAEVKKPGASVKVSCKASGYTFTDYNMDWVRQAPGQGLEWIGDINPNNADTIYNQKFKGRVTLTVDTSTSTVYMELSSLRSEDTAVYYCARGDYDGYYPVYYAMDYWGQGTTVTVSS
VL: EIVLTQSPATLSLSPGERATLSCRASSSVSSSYLHWYQQKPGQAPRLLIYSTSNLAAGIPARFSGSGSGTDFTLTISSLEPEDFAVYYCQQYSGYPLTFGGGTKVEIK
notes: also called VH-g1/VL-g0
Regarding B5, in test [2], the “Selective window (MFI A431/Hepatocytes)” value stood at 45 fold. Also, the MFI in test [3] is 10700 MFI. In test [4], the EC50 is 0.58 nM and the “Maximum OD450 value” was 2.83 OD450. Moreover, in test [5], the EC50 amounted to 5.83 nM and the “Maximum mean fluorescence intensity” value turned out to be 18200 MFI. The same molecule yielded an MFI in test [6] of 238 MFI.

B6: Humanized antibody h75G7C6-14 (antibody, human IgG1, V domains shown)
VH: QVQLVQSGAEVKKPGASVKVSCKASGYTFTDYNMDWVKQAPGQGLEWIGDINPNNADTIYNQKFKGRVTLTVDKSTSTVYMELSSLRSEDTAVYYCARGDYDGYYPVYYAMDYWGQGTTVTVSS
VL: ENVLTQSPATLSLSPGERATLSCRASSSVSSSYLHWYQQKPGQAPRLLIFSTSNLAAGIPARFSGSGSGTDYTLTISSLEPEDFAVYYCQQYSGYPLTFGGGTKVEIK
notes: also called VH-g2/VL-g1
In the case of B6, the “Selective window (MFI A431/Hepatocytes)” value in test [2] was 46.2 fold. In addition, the MFI in test [3] is 11500 MFI; in test [6], 248 MFI. In addition, the results for the EC50 in test [4] and in test [5] were 0.32 nM and 6.37 nM, respectively. Also, the “Maximum OD450 value” in test [4] worked out at 3.03 OD450. Also, the “Maximum mean fluorescence intensity” value in test [5] was 18500 MFI.

B7: Humanized antibody h75G7C6-16 (antibody, human IgG1, V domains shown)
VH: QVQLVQSGAEVKKPGASVKVSCKASGYTFTDYNMDWVKQAPGQGLEWIGDINPNNADTIYNQKFKGRVTLTVDKSTSTVYMELSSLRSEDTAVYYCARGDYDGYYPVYYAMDYWGQGTTVTVSS
VL: ENVLTQSPATLSLSPGERATLSCRASSSVSSSYLHWYQQKPGQSPRLLIFSTSNLAAGVPARFSGSGSGTDYTLTISSLEPEDFAVYYCQQYSGYPLTFGGGTKVEIK
notes: also called VH-g2/VL-g3
Regarding B7, in test [2], the “Selective window (MFI A431/Hepatocytes)” value turned out to be 46.2 fold. For the same molecule, the MFI in test [3] was found to be 12400 MFI. Also, in test [4], the 50% effective concentration (EC50) came to 0.27 nM and the “Maximum OD450 value” came out at 2.97 OD450. For the same molecule, in test [5], a half-maximal effect (EC50) was put at 6.74 nM and the “Maximum mean fluorescence intensity” value amounted to 18900 MFI. The MFI in test [6] worked out at 269 MFI.

B8: Humanized antibody h75G7C6-15 (antibody, human IgG1, V domains shown)
VH: QVQLVQSGAEVKKPGASVKVSCKASGYTFTDYNMDWVKQAPGQGLEWIGDINPNNADTIYNQKFKGRVTLTVDKSTSTVYMELSSLRSEDTAVYYCARGDYDGYYPVYYAMDYWGQGTTVTVSS
VL: ENVLTQSPATLSLSPGERATLSCRASSSVSSSYLHWYQQKPGQSPRLLIFSTSNLAAGIPARFSGSGSGTDYTLTISSLEPEDFAVYYCQQYSGYPLTFGGGTKVEIK
notes: also called VH-g2/VL-g2
B8: the “Selective window (MFI A431/Hepatocytes)” value in test [2] stood at 45.3 fold. The MFI was found to be 13000 MFI in test [3] and 287 MFI in test [6]. For the same molecule, the values for the EC50 in test [4] and in test [5] were 0.29 nM and 6.45 nM, respectively. Also, the “Maximum OD450 value” in test [4] is 3.19 OD450. Also, the “Maximum mean fluorescence intensity” value in test [5] is 18900 MFI.

B9: Humanized antibody h75G7C6-13 (antibody, human IgG1, V domains shown)
VH: QVQLVQSGAEVKKPGASVKVSCKASGYTFTDYNMDWVKQAPGQGLEWIGDINPNNADTIYNQKFKGRVTLTVDKSTSTVYMELSSLRSEDTAVYYCARGDYDGYYPVYYAMDYWGQGTTVTVSS
VL: EIVLTQSPATLSLSPGERATLSCRASSSVSSSYLHWYQQKPGQAPRLLIYSTSNLAAGIPARFSGSGSGTDFTLTISSLEPEDFAVYYCQQYSGYPLTFGGGTKVEIK
notes: also called VH-g2/VL-g0
Regarding B9, in test [2], the “Selective window (MFI A431/Hepatocytes)” value came to 44.7 fold. Also, the MFI in test [3] stood at 11500 MFI; in test [6] it was 256 MFI. In addition, the EC50 came out at 0.48 nM in test [4] and 6.77 nM in test [5]. The “Maximum OD450 value” in test [4] stood at 3.16 OD450. For the same molecule, the “Maximum mean fluorescence intensity” value in test [5] was determined as 18700 MFI.

These data come from patent publication US20210032351A1 (XDCEXPLORER SHANGHAI, published 2021).
